# Data reported in US20140087995A1 (published 2014).
# Numbered stars: 1 amine (or outer) side, 2 acyl side, 3 side chain; on linkers, the order of the positions; unused ones are H or OH. Bridge positions count the residues as written; N and C are the ends. Square brackets hold non-standard residues; d marks the D form. Side chains are listed from the residue outwards. Ends that are not written are not given here. * marks the point of attachment. C20 diacid = O=C(O)CCCCCCCCCCCCCCCCCCC(=O)*; γGlu = O=C(O)[C@H](CCC(=O)[*:2])N[*:1]; AEEA = NCCOCCOCC(=O)O
# T1: rat amylin receptor (rat calcitonin receptor + rat RAMP 3) (rat, UniProt P32214 25-516; Q9JJ73 23-147)
# T1 construct: whole, on cells; Membranes prepared from transiently transfected BHK tk'ts 13 cells; also called rAmylin-R; rat amylin 3(a) receptor
# T1 sequence (looked up) 1: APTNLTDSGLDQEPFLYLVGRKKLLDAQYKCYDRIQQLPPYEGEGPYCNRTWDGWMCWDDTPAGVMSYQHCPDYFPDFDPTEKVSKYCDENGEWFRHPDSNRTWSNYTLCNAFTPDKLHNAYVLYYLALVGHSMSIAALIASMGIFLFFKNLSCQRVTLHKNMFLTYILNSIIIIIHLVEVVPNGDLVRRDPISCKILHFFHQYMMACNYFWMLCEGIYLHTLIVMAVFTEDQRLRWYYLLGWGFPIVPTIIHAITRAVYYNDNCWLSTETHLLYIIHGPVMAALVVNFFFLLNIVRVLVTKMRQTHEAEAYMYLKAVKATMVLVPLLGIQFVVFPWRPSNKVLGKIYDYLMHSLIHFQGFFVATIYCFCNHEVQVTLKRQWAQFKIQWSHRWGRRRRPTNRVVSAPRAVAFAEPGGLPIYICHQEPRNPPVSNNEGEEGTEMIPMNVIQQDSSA
# T1 sequence (looked up) 2: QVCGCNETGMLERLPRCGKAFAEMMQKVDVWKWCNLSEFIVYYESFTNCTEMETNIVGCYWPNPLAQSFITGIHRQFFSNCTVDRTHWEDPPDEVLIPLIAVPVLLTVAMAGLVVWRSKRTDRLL
# T2: rat calcitonin receptor (rat, UniProt P32214 25-516)
# T2 construct: whole, on cells; Cell membranes of transiently transfected BHK tk'ts 13 cells (Assay VIII); also called rCTR; rCT
# T2 sequence (looked up): T1 sequence (looked up) 1
# T3: rat calcitonin receptor (rat, UniProt P32214 25-516)
# T3 construct: whole, on cells; Membranes prepared from transiently transfected BHK tk'ts 13 cells; also called rCTR; rat calcitonin (a) receptor
# T3 sequence (looked up): T1 sequence (looked up) 1
# T4: rat amylin receptor (rat calcitonin receptor + rat RAMP 3) (rat, UniProt P32214 25-516; Q9JJ73 23-147)
# T4 construct: whole, on cells; Cell membranes of transiently transfected BHK tk'ts 13 cells (Assay VI); also called rAmylin-R; rat amylin 3(a) receptor
# T4 sequence (looked up) 1: T1 sequence (looked up) 1
# T4 sequence (looked up) 2: T1 sequence (looked up) 2
# B1: N^ε1-[(4S)-4-carboxy-4-[[(4S)-4-carboxy-4-(19-carboxynonadecanoylamino)butanoyl]amino]butanoyl]-[D-Asp14,Arg17,Pro21,Pro27,Arg35]-h-amylin (peptide)
# peptide: K([γGlu-γGlu-C20 diacid])CNTATCATQRLA[dD]FLRHSSPNFGAIPSSTNVGSRTY-NH2
# modifications: disulfide 2-7; N-terminus assumed
# SMILES: CC[C@H](C)[C@H](NC(=O)[C@H](C)NC(=O)CNC(=O)[C@H](Cc1ccccc1)NC(=O)[C@H](CC(N)=O)NC(=O)[C@@H]1CCCN1C(=O)[C@H](CO)NC(=O)[C@H](CO)NC(=O)[C@H](Cc1c[nH]cn1)NC(=O)[C@H](CCCNC(=N)N)NC(=O)[C@H](CC(C)C)NC(=O)[C@H](Cc1ccccc1)NC(=O)[C@@H](CC(=O)O)NC(=O)[C@H](C)NC(=O)[C@H](CC(C)C)NC(=O)[C@H](CCCNC(=N)N)NC(=O)[C@H](CCC(N)=O)NC(=O)[C@@H](NC(=O)[C@H](C)NC(=O)[C@@H]1CSSC[C@H](NC(=O)[C@@H](N)CCCCNC(=O)CC[C@H](NC(=O)CC[C@H](NC(=O)CCCCCCCCCCCCCCCCCCC(=O)O)C(=O)O)C(=O)O)C(=O)N[C@@H](CC(N)=O)C(=O)N[C@@H]([C@@H](C)O)C(=O)N[C@@H](C)C(=O)N[C@@H]([C@@H](C)O)C(=O)N1)[C@@H](C)O)C(=O)N1CCC[C@H]1C(=O)N[C@@H](CO)C(=O)N[C@@H](CO)C(=O)N[C@H](C(=O)N[C@@H](CC(N)=O)C(=O)N[C@H](C(=O)NCC(=O)N[C@@H](CO)C(=O)N[C@@H](CCCNC(=N)N)C(=O)N[C@H](C(=O)N[C@@H](Cc1ccc(O)cc1)C(N)=O)[C@@H](C)O)C(C)C)[C@@H](C)O
# B2: N^ε1-[2-[2-[2-[[(4S)-4-carboxy-4-(19-carboxynonadecanoylamino)butanoyl]amino]ethoxy]ethoxy]acetyl]-[Arg17,Pro21,Pro27,Pro28,Pro31]-h-amylin (peptide)
# peptide: K([AEEA-γGlu-C20 diacid])CNTATCATQRLANFLRHSSPNFGAIPPSTPVGSNTY-NH2
# modifications: disulfide 2-7
# notes: Acylated analogue of human amylin; also called compound 53
# B3: N^ε1-[2-[2-[2-[[(4S)-4-carboxy-4-(19-carboxynonadecanoylamino)butanoyl]amino]ethoxy]ethoxy]acetyl]-[Arg17,Pro21,Pro27,Pro28,Pro34]-h-amylin (peptide)
# peptide: K([AEEA-γGlu-C20 diacid])CNTATCATQRLANFLRHSSPNFGAIPPSTNVGPNTY-NH2
# modifications: disulfide 2-7; N-terminus assumed
# SMILES: CC[C@H](C)[C@H](NC(=O)[C@H](C)NC(=O)CNC(=O)[C@H](Cc1ccccc1)NC(=O)[C@H](CC(N)=O)NC(=O)[C@@H]1CCCN1C(=O)[C@H](CO)NC(=O)[C@H](CO)NC(=O)[C@H](Cc1c[nH]cn1)NC(=O)[C@H](CCCNC(=N)N)NC(=O)[C@H](CC(C)C)NC(=O)[C@H](Cc1ccccc1)NC(=O)[C@H](CC(N)=O)NC(=O)[C@H](C)NC(=O)[C@H](CC(C)C)NC(=O)[C@H](CCCNC(=N)N)NC(=O)[C@H](CCC(N)=O)NC(=O)[C@@H](NC(=O)[C@H](C)NC(=O)[C@@H]1CSSC[C@H](NC(=O)[C@@H](N)CCCCNC(=O)COCCOCCNC(=O)CC[C@H](NC(=O)CCCCCCCCCCCCCCCCCCC(=O)O)C(=O)O)C(=O)N[C@@H](CC(N)=O)C(=O)N[C@@H]([C@@H](C)O)C(=O)N[C@@H](C)C(=O)N[C@@H]([C@@H](C)O)C(=O)N1)[C@@H](C)O)C(=O)N1CCC[C@H]1C(=O)N1CCC[C@H]1C(=O)N[C@@H](CO)C(=O)N[C@H](C(=O)N[C@@H](CC(N)=O)C(=O)N[C@H](C(=O)NCC(=O)N1CCC[C@H]1C(=O)N[C@@H](CC(N)=O)C(=O)N[C@H](C(=O)N[C@@H](Cc1ccc(O)cc1)C(N)=O)[C@@H](C)O)C(C)C)[C@@H](C)O
# notes: Acylated analogue of human amylin; also called compound 55
# B4: N^ε1-[2-[2-[2-[[(4S)-4-carboxy-4-(19-carboxynonadecanoylamino)butanoyl]amino]ethoxy]ethoxy]acetyl]-[Arg17,Pro21,Pro27,Pro31,His35]-h-amylin (peptide)
# peptide: K([AEEA-γGlu-C20 diacid])CNTATCATQRLANFLRHSSPNFGAIPSSTPVGSHTY-NH2
# modifications: disulfide 2-7; N-terminus assumed
# SMILES: CC[C@H](C)[C@H](NC(=O)[C@H](C)NC(=O)CNC(=O)[C@H](Cc1ccccc1)NC(=O)[C@H](CC(N)=O)NC(=O)[C@@H]1CCCN1C(=O)[C@H](CO)NC(=O)[C@H](CO)NC(=O)[C@H](Cc1c[nH]cn1)NC(=O)[C@H](CCCNC(=N)N)NC(=O)[C@H](CC(C)C)NC(=O)[C@H](Cc1ccccc1)NC(=O)[C@H](CC(N)=O)NC(=O)[C@H](C)NC(=O)[C@H](CC(C)C)NC(=O)[C@H](CCCNC(=N)N)NC(=O)[C@H](CCC(N)=O)NC(=O)[C@@H](NC(=O)[C@H](C)NC(=O)[C@@H]1CSSC[C@H](NC(=O)[C@@H](N)CCCCNC(=O)COCCOCCNC(=O)CC[C@H](NC(=O)CCCCCCCCCCCCCCCCCCC(=O)O)C(=O)O)C(=O)N[C@@H](CC(N)=O)C(=O)N[C@@H]([C@@H](C)O)C(=O)N[C@@H](C)C(=O)N[C@@H]([C@@H](C)O)C(=O)N1)[C@@H](C)O)C(=O)N1CCC[C@H]1C(=O)N[C@@H](CO)C(=O)N[C@@H](CO)C(=O)N[C@H](C(=O)N1CCC[C@H]1C(=O)N[C@H](C(=O)NCC(=O)N[C@@H](CO)C(=O)N[C@@H](Cc1c[nH]cn1)C(=O)N[C@H](C(=O)N[C@@H](Cc1ccc(O)cc1)C(N)=O)[C@@H](C)O)C(C)C)[C@@H](C)O
# notes: Acylated analogue of human amylin; also called compound 57
# B5: N^ε1-[2-[2-[2-[[(4S)-4-carboxy-4-(19-carboxynonadecanoylamino)butanoyl]amino]ethoxy]ethoxy]acetyl]-[Arg17,Pro21,Pro27,Pro29,Pro31]-h-amylin (peptide)
# peptide: K([AEEA-γGlu-C20 diacid])CNTATCATQRLANFLRHSSPNFGAIPSPTPVGSNTY-NH2
# modifications: disulfide 2-7; N-terminus assumed
# SMILES: CC[C@H](C)[C@H](NC(=O)[C@H](C)NC(=O)CNC(=O)[C@H](Cc1ccccc1)NC(=O)[C@H](CC(N)=O)NC(=O)[C@@H]1CCCN1C(=O)[C@H](CO)NC(=O)[C@H](CO)NC(=O)[C@H](Cc1c[nH]cn1)NC(=O)[C@H](CCCNC(=N)N)NC(=O)[C@H](CC(C)C)NC(=O)[C@H](Cc1ccccc1)NC(=O)[C@H](CC(N)=O)NC(=O)[C@H](C)NC(=O)[C@H](CC(C)C)NC(=O)[C@H](CCCNC(=N)N)NC(=O)[C@H](CCC(N)=O)NC(=O)[C@@H](NC(=O)[C@H](C)NC(=O)[C@@H]1CSSC[C@H](NC(=O)[C@@H](N)CCCCNC(=O)COCCOCCNC(=O)CC[C@H](NC(=O)CCCCCCCCCCCCCCCCCCC(=O)O)C(=O)O)C(=O)N[C@@H](CC(N)=O)C(=O)N[C@@H]([C@@H](C)O)C(=O)N[C@@H](C)C(=O)N[C@@H]([C@@H](C)O)C(=O)N1)[C@@H](C)O)C(=O)N1CCC[C@H]1C(=O)N[C@@H](CO)C(=O)N1CCC[C@H]1C(=O)N[C@H](C(=O)N1CCC[C@H]1C(=O)N[C@H](C(=O)NCC(=O)N[C@@H](CO)C(=O)N[C@@H](CC(N)=O)C(=O)N[C@H](C(=O)N[C@@H](Cc1ccc(O)cc1)C(N)=O)[C@@H](C)O)C(C)C)[C@@H](C)O
# notes: Acylated analogue of human amylin; also called compound 54
# B6: N^ε1-[2-[2-[2-[[(4S)-4-carboxy-4-(19-carboxynonadecanoylamino)butanoyl]amino]ethoxy]ethoxy]acetyl]-[Arg17,Pro21,Pro27,Pro29,Pro34]-h-amylin (peptide)
# peptide: K([AEEA-γGlu-C20 diacid])CNTATCATQRLANFLRHSSPNFGAIPSPTNVGPNTY-NH2
# modifications: disulfide 2-7; N-terminus assumed
# SMILES: CC[C@H](C)[C@H](NC(=O)[C@H](C)NC(=O)CNC(=O)[C@H](Cc1ccccc1)NC(=O)[C@H](CC(N)=O)NC(=O)[C@@H]1CCCN1C(=O)[C@H](CO)NC(=O)[C@H](CO)NC(=O)[C@H](Cc1c[nH]cn1)NC(=O)[C@H](CCCNC(=N)N)NC(=O)[C@H](CC(C)C)NC(=O)[C@H](Cc1ccccc1)NC(=O)[C@H](CC(N)=O)NC(=O)[C@H](C)NC(=O)[C@H](CC(C)C)NC(=O)[C@H](CCCNC(=N)N)NC(=O)[C@H](CCC(N)=O)NC(=O)[C@@H](NC(=O)[C@H](C)NC(=O)[C@@H]1CSSC[C@H](NC(=O)[C@@H](N)CCCCNC(=O)COCCOCCNC(=O)CC[C@H](NC(=O)CCCCCCCCCCCCCCCCCCC(=O)O)C(=O)O)C(=O)N[C@@H](CC(N)=O)C(=O)N[C@@H]([C@@H](C)O)C(=O)N[C@@H](C)C(=O)N[C@@H]([C@@H](C)O)C(=O)N1)[C@@H](C)O)C(=O)N1CCC[C@H]1C(=O)N[C@@H](CO)C(=O)N1CCC[C@H]1C(=O)N[C@H](C(=O)N[C@@H](CC(N)=O)C(=O)N[C@H](C(=O)NCC(=O)N1CCC[C@H]1C(=O)N[C@@H](CC(N)=O)C(=O)N[C@H](C(=O)N[C@@H](Cc1ccc(O)cc1)C(N)=O)[C@@H](C)O)C(C)C)[C@@H](C)O
# notes: Acylated analogue of human amylin; also called compound 56
# Molecular target: T1, rat amylin receptor (rat calcitonin …)
# Experiment: SPA competition vs 125I-rat amylin, membranes (Assay VI)
row,IC50 [nM],Binder
1,1.69,B1

# Molecular target: T2, rat calcitonin receptor
# Experiment: SPA competition vs 125I-calcitonin, membranes with rat CTR (Assay VIII)
row,IC50 [nM],Binder
1,10.9,B2
2,6.25,B3
3,24.4,B4
4,8.79,B5
5,5.26,B6

# Molecular target: T3, rat calcitonin receptor
# Experiment: SPA competition vs 125I-calcitonin, membranes (Assay VIII)
row,IC50 [nM],Binder
1,536,B1

# Molecular target: T4, rat amylin receptor (rat calcitonin …)
# Experiment: SPA competition vs 125I-rat amylin, membranes with rat CTR + rat RAMP3 (Assay VI)
row,IC50 [nM],Binder
1,0.084,B2
2,0.081,B3
3,0.181,B4
4,0.049,B5
5,0.04,B6

# Molecular target: T2, rat calcitonin receptor
# Experiment: ratio IC50 rat calcitonin receptor / IC50 rat amylin receptor
row,Ratio rCT/rAmylin binding,Binder
1,130,B2
2,77.2,B3
3,135,B4
4,179,B5
5,131,B6
